One block for each substance: values may come before it.
Columns and labels:
C3d ligand = C3d ligand (UniProt P01024); test: plate binding assay on C3d, purified protein; reference
C3 convertase, C3bBb = C3 convertase, C3bBb (UniProt P01024); test: cell-based or functional assay
C3b protein [1] = target: C3b protein (UniProt P01024); test: plate binding ELISA on coated C3b, purified protein; reference
CRP = target: T1, CRP (UniProt P02741); test: plate binding ELISA on coated CRP, purified protein; reference
T1 sequence (looked up): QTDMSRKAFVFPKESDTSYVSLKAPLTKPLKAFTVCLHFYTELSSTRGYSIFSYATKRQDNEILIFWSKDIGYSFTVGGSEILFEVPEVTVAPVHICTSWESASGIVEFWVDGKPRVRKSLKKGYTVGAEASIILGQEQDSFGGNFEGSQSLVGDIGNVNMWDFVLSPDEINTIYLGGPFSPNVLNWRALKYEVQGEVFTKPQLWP

[2] = target: malondialdehyde modified LDL (UniProt P04114); test: plate binding ELISA on coated MDA-LDL, purified protein; reference
[3] = target: malondialdehyde modified LDL (UniProt P04114); test: plate binding ELISA on coated MDA-LDL, HEK293 supernatant; fold vs (-) control pCTM395 supernatant
C3b protein [4] = target: C3b protein (UniProt P01024); test: plate binding ELISA on coated C3b, HEK293 supernatant 25 ng/mL; fold vs (-) control pCTM395 supernatant
[5] = target: malondialdehyde modified LDL (UniProt P04114); test: plate binding ELISA on coated MDA-LDL; fold vs (-) control pCTM395 supernatant

Sequence of CFHT.0 purified recombinant protein (pCTM134) (P08603 other isoform, or with tags, fused parts or gaps limits assumed): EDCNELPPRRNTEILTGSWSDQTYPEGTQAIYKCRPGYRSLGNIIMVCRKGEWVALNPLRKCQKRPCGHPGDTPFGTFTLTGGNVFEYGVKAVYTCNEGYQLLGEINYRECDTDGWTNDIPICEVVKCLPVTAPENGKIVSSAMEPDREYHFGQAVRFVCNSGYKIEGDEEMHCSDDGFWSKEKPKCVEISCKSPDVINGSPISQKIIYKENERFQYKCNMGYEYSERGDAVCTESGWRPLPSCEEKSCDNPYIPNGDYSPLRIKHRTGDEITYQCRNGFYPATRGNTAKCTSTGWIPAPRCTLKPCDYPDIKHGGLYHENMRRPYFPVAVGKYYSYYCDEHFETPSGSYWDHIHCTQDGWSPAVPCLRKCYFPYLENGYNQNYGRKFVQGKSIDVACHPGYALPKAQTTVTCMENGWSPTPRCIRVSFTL
Sequence of C3b protein (P01024 23-667 limits assumed, chain 1 of 2): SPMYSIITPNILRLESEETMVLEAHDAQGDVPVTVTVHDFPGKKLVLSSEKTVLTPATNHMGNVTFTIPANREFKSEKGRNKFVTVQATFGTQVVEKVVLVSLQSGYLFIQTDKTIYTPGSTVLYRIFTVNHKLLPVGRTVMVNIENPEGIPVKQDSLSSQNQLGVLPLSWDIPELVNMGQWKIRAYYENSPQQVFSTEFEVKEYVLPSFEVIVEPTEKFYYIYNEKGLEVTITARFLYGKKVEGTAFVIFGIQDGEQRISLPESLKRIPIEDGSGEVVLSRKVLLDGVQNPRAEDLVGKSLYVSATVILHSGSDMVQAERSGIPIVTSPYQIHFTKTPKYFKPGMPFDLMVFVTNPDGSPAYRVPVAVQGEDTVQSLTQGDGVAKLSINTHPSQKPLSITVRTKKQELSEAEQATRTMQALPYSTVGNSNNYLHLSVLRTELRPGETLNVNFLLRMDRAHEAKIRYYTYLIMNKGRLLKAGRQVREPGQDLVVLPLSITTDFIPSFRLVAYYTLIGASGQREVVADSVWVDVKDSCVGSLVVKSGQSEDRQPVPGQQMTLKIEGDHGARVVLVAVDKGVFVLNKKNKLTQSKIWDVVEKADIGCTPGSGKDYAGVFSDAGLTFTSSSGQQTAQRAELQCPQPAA
Sequence of C3b protein (P01024 749-1663 limits assumed, chain 2 of 2): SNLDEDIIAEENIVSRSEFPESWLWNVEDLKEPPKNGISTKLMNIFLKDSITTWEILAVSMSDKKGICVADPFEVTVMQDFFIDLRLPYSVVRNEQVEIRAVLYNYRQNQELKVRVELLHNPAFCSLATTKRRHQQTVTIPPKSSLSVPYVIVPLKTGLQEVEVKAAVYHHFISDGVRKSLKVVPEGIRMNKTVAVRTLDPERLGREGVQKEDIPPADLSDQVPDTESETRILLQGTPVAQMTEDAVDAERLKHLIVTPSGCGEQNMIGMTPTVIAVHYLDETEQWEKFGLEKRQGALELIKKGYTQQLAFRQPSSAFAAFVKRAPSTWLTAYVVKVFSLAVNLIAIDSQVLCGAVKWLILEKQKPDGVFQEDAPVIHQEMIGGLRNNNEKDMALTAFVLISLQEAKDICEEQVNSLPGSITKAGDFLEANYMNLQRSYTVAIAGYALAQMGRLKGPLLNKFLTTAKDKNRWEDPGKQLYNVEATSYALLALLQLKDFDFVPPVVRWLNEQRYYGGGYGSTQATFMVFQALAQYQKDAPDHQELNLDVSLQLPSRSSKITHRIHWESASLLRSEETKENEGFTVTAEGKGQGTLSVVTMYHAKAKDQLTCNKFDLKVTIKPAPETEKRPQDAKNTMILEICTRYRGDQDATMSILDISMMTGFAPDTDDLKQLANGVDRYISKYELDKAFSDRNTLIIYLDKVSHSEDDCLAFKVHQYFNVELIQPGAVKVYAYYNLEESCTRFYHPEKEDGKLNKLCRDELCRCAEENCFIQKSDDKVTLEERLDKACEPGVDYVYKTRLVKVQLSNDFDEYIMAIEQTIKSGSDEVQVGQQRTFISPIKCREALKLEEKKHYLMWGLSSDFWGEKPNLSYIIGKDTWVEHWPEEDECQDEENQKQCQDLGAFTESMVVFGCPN
Sequence of CFHT.0 (pCTM297) (P08603 other isoform, or with tags, fused parts or gaps limits assumed): as the sequence (P08603 other isoform, or with tags, fused parts or gaps limits assumed) above
Sequence of rCFHT-I62 Protein (P08603 other isoform, or with tags, fused parts or gaps limits assumed): as above
Sequence of His-CFHT.0 (pCTM447) (P08603 other isoform, or with tags, fused parts or gaps limits assumed): as above
Sequence of C3 convertase, C3bBb (P01024 23-1663 limits assumed, chain 1 of 2): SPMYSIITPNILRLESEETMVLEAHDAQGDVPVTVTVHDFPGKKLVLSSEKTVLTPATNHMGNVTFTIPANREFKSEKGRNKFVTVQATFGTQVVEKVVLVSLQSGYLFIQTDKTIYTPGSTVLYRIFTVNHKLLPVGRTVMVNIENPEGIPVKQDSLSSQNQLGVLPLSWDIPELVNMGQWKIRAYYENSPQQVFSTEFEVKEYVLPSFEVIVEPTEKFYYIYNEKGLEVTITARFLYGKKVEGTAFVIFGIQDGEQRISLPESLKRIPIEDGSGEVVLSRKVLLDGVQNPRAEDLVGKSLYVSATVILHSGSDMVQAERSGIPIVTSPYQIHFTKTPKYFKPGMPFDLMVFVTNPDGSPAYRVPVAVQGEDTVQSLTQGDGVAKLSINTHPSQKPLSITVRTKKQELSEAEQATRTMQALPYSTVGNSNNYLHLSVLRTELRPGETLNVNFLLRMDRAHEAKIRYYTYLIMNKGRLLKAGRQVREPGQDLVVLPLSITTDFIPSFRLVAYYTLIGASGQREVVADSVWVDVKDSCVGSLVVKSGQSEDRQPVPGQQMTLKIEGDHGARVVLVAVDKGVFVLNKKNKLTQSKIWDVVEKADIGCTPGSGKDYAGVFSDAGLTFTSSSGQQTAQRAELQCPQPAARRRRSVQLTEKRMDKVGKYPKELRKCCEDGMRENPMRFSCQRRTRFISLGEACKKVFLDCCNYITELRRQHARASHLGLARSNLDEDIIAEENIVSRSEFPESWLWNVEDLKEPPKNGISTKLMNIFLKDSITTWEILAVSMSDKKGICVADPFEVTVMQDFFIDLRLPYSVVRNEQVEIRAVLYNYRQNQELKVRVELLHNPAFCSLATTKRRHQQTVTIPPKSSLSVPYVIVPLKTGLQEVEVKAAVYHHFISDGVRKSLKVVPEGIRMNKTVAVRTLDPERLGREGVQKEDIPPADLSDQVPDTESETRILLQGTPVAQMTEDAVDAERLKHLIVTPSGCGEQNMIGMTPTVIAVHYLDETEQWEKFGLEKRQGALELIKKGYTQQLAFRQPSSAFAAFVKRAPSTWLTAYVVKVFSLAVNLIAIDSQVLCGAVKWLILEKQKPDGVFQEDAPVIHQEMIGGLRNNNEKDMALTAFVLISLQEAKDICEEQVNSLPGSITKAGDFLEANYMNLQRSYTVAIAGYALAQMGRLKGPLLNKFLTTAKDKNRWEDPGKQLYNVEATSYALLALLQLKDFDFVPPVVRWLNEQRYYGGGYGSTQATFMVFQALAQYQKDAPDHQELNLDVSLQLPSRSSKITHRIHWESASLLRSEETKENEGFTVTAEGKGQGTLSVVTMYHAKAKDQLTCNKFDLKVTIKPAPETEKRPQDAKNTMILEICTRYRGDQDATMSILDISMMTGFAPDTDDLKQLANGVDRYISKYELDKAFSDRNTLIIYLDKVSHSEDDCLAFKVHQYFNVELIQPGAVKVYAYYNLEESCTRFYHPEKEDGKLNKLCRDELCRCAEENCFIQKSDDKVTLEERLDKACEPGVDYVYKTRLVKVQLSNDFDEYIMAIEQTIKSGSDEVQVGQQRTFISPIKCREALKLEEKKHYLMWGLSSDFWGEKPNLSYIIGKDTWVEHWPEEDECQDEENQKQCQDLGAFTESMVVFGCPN
Sequence of C3 convertase, C3bBb (P00751 260-764 limits assumed, chain 2 of 2, further chain): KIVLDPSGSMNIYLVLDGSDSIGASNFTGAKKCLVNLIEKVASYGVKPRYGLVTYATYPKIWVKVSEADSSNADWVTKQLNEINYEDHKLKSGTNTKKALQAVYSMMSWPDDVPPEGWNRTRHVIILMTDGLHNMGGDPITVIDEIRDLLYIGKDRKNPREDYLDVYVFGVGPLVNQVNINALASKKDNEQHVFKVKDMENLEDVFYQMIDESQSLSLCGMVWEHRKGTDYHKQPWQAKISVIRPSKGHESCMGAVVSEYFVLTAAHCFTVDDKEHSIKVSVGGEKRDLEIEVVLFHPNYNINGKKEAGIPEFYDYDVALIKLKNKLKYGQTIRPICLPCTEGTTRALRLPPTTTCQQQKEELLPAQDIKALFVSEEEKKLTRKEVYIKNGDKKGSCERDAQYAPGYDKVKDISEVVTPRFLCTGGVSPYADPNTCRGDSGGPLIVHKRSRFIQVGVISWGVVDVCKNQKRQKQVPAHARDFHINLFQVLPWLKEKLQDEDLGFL
Sequence of C3d ligand (P01024 1002-1303 limits assumed): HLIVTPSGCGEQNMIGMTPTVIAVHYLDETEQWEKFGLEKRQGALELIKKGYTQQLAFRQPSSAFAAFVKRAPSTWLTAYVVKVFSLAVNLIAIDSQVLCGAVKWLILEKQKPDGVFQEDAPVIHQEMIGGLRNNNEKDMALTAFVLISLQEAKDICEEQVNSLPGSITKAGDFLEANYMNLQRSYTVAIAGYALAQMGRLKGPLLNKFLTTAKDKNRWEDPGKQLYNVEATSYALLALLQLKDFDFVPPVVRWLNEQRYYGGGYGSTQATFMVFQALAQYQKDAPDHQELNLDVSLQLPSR

Fold Activity (Compared to CFHT-I62) (C3d ligand): 1 fold
IC50, decay acceleration activity (DAA) assay (C3 convertase, C3bBb): 1.95 nM
Fold Activity (Compared to CFHT-I62) (C3b protein [1]): 1 fold
Fold Activity (Compared to CFHT-I62) (CRP): 1 fold
Fold Activity (Compared to CFHT-I62) [2]: 1 fold
Substance: CFHT.0 purified recombinant protein (pCTM134) (from UniProt P08603 19-445)

Fold Activity at Highest Dose (Relative to Control) [3]: 1.4 fold
Fold Activity at Highest Dose (Relative to Control) (C3b protein [4]): 1.5 fold
Substance: His-CFHT.0 (pCTM447) (from UniProt P08603 19-445)

Fold Activity at Highest Dose (Relative to Control) [5]: 52 fold
Substance: rCFHT-I62 Protein (from UniProt P08603 19-445)

Fold Activity at Highest Dose (Relative to Control) [3]: 1.5 fold
Substance: CFHT.0 (pCTM297) (from UniProt P08603 19-445)
